Consider four molecules from patent publication US20040219514A1, “Caml-binding peptides” (priority 2000, published 2004).

In one test the target is T1, CAML (Homo sapiens, UniProt P49069).
T1 sequence (P49069 1-296): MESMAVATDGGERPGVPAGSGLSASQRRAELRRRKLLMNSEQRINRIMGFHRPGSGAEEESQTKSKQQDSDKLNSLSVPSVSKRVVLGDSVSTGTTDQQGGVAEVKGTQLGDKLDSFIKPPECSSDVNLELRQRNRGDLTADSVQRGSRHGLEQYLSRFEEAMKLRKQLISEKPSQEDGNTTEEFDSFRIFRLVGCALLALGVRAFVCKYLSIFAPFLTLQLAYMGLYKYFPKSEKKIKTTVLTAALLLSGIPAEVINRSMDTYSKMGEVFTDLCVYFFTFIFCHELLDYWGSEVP
As to conditions: published reports on human TACI fragments; cited from earlier work.

The subject of test [1] is U937 cells. As to the kind of experiment: Arachidonic acid release assay. The test is classed as cell-based, human. Here is the method: (§1) Generation of stable U937 cell lines expressing E3/6.7K U937 human histiocytic lymphoma cells obtained from ATCC (CRL 1593) were maintained in RPMI 1640, 10% FCS, 2 mM L-glutamine, 10 mM HEPES, 100 U/ml penicillin and 100 μg/ml streptomycin in an atmosphere of 5% CO2 and 100% humidity. Cells were transfected with the appropriate construct by using the DMRIE-C cationic lipid reagent available from Life Technologies using the manufacturer's protocol. Transfected cells were maintained in medium containing geneticin G-418 sulphate at a final concentration of 800 μg/ml. Media and supplements were purchased from Life Technologies. Subclones of the transfected cell lines were generated by serial dilution and examined for expression of E3/6.7K by Northern Blotting. The expression of E3/6.7K mRNA was very similar in all the clones examined. All the G-418 resistant cells that survived the selection procedure were pooled and used for the in vitro assays, in order to avoid clonal variations known to arise in U937 cells.
Arachidonic acid release assays. […] After 20 hours of treatment the cells were centrifuged and 100 μl of supernatant out of 500 μl total was mixed with 3 ml scintillation fluid and counted. […] The counts per minute of released [3H] arachidonic acid were expressed as a percentage of the average of total incorporated [3H] arachidonic acid.

Test [2] has as its system U937 cells. As to the kind of experiment: Annexin V-FACS apoptosis assay. It is filed as cell-based, human. Here is the method:
as §1
Annexin V-FACS apoptosis assay. Annexin V-FITC (PharMingen) was used to determine the binding of Annexin V to externalized phosphatidyl serine. […] One sample of cells was not stained and used to set up the baseline fluorescence. The cells were examined with a fluorescence-activated cell sorter SACS) on a Beckton Dickson FACS Analyzer.

In test [3] the target is T2, amino acids 1 to 201 of CAML (Homo sapiens, UniProt P49069).
T2 construct: subdloning amino acids 1 to 201 of CAML in frame; expressed in transfected cells; host or cells: Saccharomyces cerevisiae AH109
T2 sequence (P49069 1-201): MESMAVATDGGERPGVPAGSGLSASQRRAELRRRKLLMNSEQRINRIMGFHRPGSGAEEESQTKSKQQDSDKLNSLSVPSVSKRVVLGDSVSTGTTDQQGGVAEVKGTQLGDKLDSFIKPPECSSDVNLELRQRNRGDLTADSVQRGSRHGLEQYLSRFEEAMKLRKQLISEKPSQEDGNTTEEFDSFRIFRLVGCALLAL
As to the kind of experiment: Yeast two-hybrid interaction. The test is classed as binding. From the text:
(§2) pBD-6.7, a bait vector containing E3/6.7, was constructed by subdloning full length E3/6.7K cDNA in frame into the C terminus of the GAL4 DNA binding domain of vector pGBKT7 (CLONTECH). pAD-CAML was constructed by subcloning full length CAML in frame into the C terminus of the GAL4 activation domain of the prey vector pGADT7 (CLONTECH). pAD-CAML(201) was constructed by subdloning amino acids 1 to 201 of CAML in frame into the C terminus of the GAl4 activation domain of the prey vector pGADT7. The fidelity of the constructs was confirmed by sequencing.
(§3) Yeast Transformation and Selection. p]3D-6.7 and pAD-CAML or pAD-CAML(201) were transformed together into Saccharomyces cerevisiae AH109 using the Lithium Acetate Yeast Transformation procedure as described by Gietz, D., et al. (1992) Nucleic Acids Res., 20:1425. Control cotransformation of p3D-53 /pAD-T and pBD-Lam/pAD-T were also done. pBD-53/pAD-T encode fusions between the GAL4 DNA-BD and AD and murine p53 and SV40 large T-antigen, respectively. p53 and large T-antigen interact in a yeast two-hybrid assay. pBD-Lam encodes a fusion of the DNA-BD with human lamin C and provides a negative control for an interaction with pAD-T. For yeast selection, pBD containing the […] gene was selected on synthetic drop out media lacking tryptophan (SD-T). pAD contains the LEU2 gene and was selected for on SD-L (leucine).
(§4) CAML-Binding with SED. The yeast two hybrid system takes advantage of the GAL4 transcriptional activator which consists of two separable and functionally essential domains: a DNA binding domain and a domain that activates transcription. A bait gene (fragments of the E3/6.7K gene) was expressed as a fusion to the GAL4 DNA-binding domain (ED), while a prey gene (CAML) was expressed as a fusion to the GAL4 activation domain (AD). When bait and prey fusion proteins interact, the BD and AD are brought into proximity, thus activating transcription of reporter genes.

In test [4] the target is T3, full length CAML (Homo sapiens, UniProt P49069).
T3 construct: expressed in transfected cells; host or cells: Saccharomyces cerevisiae AH109
T3 sequence (P49069 1-296): T1 sequence (P49069 1-296)
As to the kind of experiment: Yeast two-hybrid interaction. It is filed as binding.
Description: as §2, §3, §4

In test [5] the target is T4, full length CAML (Mus musculus, UniProt P49070).
T4 construct: expressed in transfected cells; host or cells: Saccharomyces cerevisiae AH109
T4 sequence (P49070 1-294): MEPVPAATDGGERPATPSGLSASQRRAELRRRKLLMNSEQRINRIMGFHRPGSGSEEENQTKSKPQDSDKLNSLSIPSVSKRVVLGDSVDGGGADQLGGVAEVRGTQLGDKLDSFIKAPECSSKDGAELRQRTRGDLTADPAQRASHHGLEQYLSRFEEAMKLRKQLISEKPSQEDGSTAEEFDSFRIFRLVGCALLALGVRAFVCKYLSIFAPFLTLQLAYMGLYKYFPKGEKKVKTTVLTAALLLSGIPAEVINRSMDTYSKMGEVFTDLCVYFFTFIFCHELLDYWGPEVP
As to the kind of experiment: Yeast two-hybrid interaction. It is filed as binding. The following applies: GAL4 bait/prey.
Description: as §2, §3, §4

For another test, the system named is calcium ions from the ER. The test can be described thus: Efflux of calcium ions from the ER. The test is classed as cell-based. As to conditions: in the presence of E3/6.7K.

B1: amino acids 1-212: fragment of human TACI, amino acids 1-212 (protein, UniProt O14836 1-212, looked up, fragment)
chain: MSGLGRSRRGGRSRVDQEERFPQGLWTGVAMRSCPEEQYWDPLLGTCMSCKTICNHQSQRTCAAFCRSLSCRKEQGKFYDHLLRDCISCASICGQHPKQCAYFCENKLRSPVNLPPELRRQRSGEVENNSDNSGRYQGLEHRGSEASPALPGLKLSADQVALVYSTLGLCLCAVLCCFLVAVACFLKKRGDPCSCQPRSRPRQSPAKSSQDH
With B1, the CAML-binding entry with CAML is reported as “capable of binding to CAML”.

B2: amino acids 1-168 of human TACI: fragment of human transmembrane activator and CAML interactor (TACI), amino acids 1-168 (protein, UniProt O14836 1-168, looked up, fragment)
chain: MSGLGRSRRGGRSRVDQEERFPQGLWTGVAMRSCPEEQYWDPLLGTCMSCKTICNHQSQRTCAAFCRSLSCRKEQGKFYDHLLRDCISCASICGQHPKQCAYFCENKLRSPVNLPPELRRQRSGEVENNSDNSGRYQGLEHRGSEASPALPGLKLSADQVALVYSTLG
Consider B2, for which the CAML-binding result in the test with CAML was “did not occur”.

B3: 1-233 of human TACI: fragment of human TACI, amino acids 1-233 (protein, UniProt O14836 1-233, looked up, fragment)
chain: MSGLGRSRRGGRSRVDQEERFPQGLWTGVAMRSCPEEQYWDPLLGTCMSCKTICNHQSQRTCAAFCRSLSCRKEQGKFYDHLLRDCISCASICGQHPKQCAYFCENKLRSPVNLPPELRRQRSGEVENNSDNSGRYQGLEHRGSEASPALPGLKLSADQVALVYSTLGLCLCAVLCCFLVAVACFLKKRGDPCSCQPRSRPRQSPAKSSQDHAMEAGSPVSTSPEPVETCSFC
Regarding B3, the CAML-binding result with CAML is “capable of binding to CAML”.

B4: E3/6.7K: 6.7K protein encoded by the adenovirus E3 region; integral membrane protein localized to the endoplasmic reticulum; expressed from transfected Ad2 cDNA (protein)
chain: MSNSSNSTSLSNFSGIGVGVILTLVILFILILALLCLRVAACCTHVCTYCQLFKRWGQHPR
modifications: Adenovirus, Ad2 E3/6.7K
notes: 6.7K protein encoded by the adenovirus E3 region; integral membrane protein localized to the endoplasmic reticulum; expressed from transfected Ad2 cDNA
On to B4, for which the “reduction of release of [3H] arachidonic acid compared to U937neor” value with U937 cells [1] (U937-E3/6.7K cells, TNF-α and cycloheximide (CHX)) came out at 60%. The “decrease of [3H] arachidonic acid release compared with U937 cells transfected with vector alone” value in the test on U937 cells [1] (U937 cells transfected with E3/6.7K cDNA, stimulated with TNF-α) was found to be 50%. For the same molecule, the “reduction in apoptosis compared to U937neor” value in the test with U937 cells [2] (U937-E3/6.7K cells, combination of TNF-α and CHX) is 65%. The “reduction in percentage of apoptotic cells compared with U937neor” value in the test on U937 cells [2] (cells expressing E3/6.7K, stimulation with TNF-α) was found to be 55%. Besides, the “interaction with CAML” value in test [3] (1-201 residue domain of CAML, GAL4 bait/prey) is listed as “interacts”; with full length CAML [4] (full length human CAML, GAL4 bait/prey), “interacts”; with full length CAML [5], “interacts”. In addition, the “growth of yeast on interaction-selective media” value in test [3] (pBD-6.7 and pAD-CAML(201) in S. cerevisiae AH109, SD-LTHX or SD-AHLTX) is “able to grow on both SD-LTHX or SD-AHLTX”; with full length CAML [4] (pBD-6.7 and pAD-CAML in S. cerevisiae AH109, SD-LTHX or SD-AHLTX), “able to grow on both SD-LTHX or SD-AHLTX”. The “efflux of calcium ions from the ER” value in the test on calcium ions from the ER was “reduced”.
